We go through 2 molecules from paper PMC4014439, “Mlh2 Is an Accessory Factor for DNA Mismatch Repair in Saccharomyces cerevisiae” (PLoS Genetics, 2014).

Test [1] addresses T1, S. cerevisiae wild type Msh2-Msh6 (S. cerevisiae, UniProt P25847 1-964; Q03834 1-1242).
T1 construct: Msh2, S. cerevisiae, wild type, from the pET11 MSH2-MSH6 plasmid; Msh6, S. cerevisiae, wild type, from the pET11 MSH2-MSH6 plasmid; also called Msh2-Msh6 heterodimer; source: E. coli BL21 (DE) RIL, pET11 MSH2-MSH6 plasmid, purified according to a previously published procedure
The test is described as follows: SPR; Biacore T100, 25°C; biotinylated 236 bp DNA (GC base pair, central TG mispair or +T insertion, lacO end blocked by 30 nM LacI) on a streptavidin SA chip; 20 nM Msh2-Msh6 or Msh2-Msh3 with 250 µM ATP injected for 100 s, then the same mixture with 40 nM Mlh1-Pms1 or Mlh1-Mlh2 for 150 s; 25 mM Tris-Cl pH 8.0, 4 mM MgCl2, 110 mM NaCl, 0.01% Igepal, 2 mM DTT, 2% glycerol; signal of the MutL homolog on DNA alone …. The following applies: both partners purified.

The next test addresses T2, S. cerevisiae Msh2-Msh3 (S. cerevisiae, UniProt P25847 1-964; P25336 1-1018).
T2 construct: Msh2, S. cerevisiae, expressed from pRDK354 (pGAL1-10-MSH2 URA3); Msh3, S. cerevisiae, expressed from pRDK1596 (pGAL1-10 MSH3-FLAG LEU2); also called Msh2-Msh3 heterodimer; source: S. cerevisiae RDKY2418 with pRDK354 and pRDK1596, purified as described previously
The test is described as above. To be noted: both partners purified.

T2 sequence (P25847 whole entry, chain 1 of 2): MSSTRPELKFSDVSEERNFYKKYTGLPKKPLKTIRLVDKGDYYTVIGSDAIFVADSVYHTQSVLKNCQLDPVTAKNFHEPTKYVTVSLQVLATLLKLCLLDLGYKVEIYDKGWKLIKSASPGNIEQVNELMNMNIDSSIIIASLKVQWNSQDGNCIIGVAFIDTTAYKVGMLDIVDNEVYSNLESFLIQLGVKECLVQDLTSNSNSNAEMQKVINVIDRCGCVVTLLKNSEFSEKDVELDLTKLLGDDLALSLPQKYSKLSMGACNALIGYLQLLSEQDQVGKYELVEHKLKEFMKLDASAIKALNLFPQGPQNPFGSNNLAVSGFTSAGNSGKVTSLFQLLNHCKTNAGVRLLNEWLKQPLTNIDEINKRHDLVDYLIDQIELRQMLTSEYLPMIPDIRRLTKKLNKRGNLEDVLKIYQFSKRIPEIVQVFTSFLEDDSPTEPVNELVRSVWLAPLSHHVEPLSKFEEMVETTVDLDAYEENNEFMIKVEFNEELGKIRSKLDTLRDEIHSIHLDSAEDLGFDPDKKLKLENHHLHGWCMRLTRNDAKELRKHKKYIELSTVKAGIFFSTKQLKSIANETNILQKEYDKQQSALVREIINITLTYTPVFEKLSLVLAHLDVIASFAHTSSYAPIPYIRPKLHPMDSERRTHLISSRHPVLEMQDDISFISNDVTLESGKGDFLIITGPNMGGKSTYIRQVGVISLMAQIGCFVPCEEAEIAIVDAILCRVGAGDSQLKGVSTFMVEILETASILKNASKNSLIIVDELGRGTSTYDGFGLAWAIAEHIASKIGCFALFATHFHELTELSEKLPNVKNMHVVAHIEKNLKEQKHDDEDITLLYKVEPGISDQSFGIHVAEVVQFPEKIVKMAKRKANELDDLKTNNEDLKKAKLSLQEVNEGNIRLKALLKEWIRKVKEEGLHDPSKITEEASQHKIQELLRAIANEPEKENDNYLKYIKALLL
T2 sequence (P25336 whole entry, chain 2 of 2): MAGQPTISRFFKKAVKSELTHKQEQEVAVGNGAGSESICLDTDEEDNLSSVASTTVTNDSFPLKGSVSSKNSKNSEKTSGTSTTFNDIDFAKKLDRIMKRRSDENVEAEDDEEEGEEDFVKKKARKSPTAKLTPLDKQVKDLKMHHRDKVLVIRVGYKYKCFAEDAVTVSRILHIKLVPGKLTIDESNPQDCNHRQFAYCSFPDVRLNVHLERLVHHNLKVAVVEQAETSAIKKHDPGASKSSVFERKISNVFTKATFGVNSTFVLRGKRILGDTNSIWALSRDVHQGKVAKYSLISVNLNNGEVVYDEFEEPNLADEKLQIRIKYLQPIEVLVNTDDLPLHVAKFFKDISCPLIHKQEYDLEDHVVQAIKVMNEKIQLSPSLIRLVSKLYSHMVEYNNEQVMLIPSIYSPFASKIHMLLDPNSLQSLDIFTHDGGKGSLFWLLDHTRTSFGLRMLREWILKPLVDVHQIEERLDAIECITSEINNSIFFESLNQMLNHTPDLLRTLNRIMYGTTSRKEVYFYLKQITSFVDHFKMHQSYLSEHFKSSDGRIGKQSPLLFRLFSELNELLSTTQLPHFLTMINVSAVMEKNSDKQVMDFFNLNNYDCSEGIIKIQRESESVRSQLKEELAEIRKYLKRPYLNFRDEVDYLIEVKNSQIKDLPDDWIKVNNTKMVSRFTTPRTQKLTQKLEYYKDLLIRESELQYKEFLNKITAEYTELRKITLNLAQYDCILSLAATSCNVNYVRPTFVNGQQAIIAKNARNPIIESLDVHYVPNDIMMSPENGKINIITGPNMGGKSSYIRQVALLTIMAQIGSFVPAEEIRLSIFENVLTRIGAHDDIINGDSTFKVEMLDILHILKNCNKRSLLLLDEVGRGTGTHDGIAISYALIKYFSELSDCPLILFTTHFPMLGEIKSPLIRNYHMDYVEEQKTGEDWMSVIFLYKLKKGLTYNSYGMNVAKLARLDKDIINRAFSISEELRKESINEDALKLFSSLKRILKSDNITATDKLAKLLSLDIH
T1 sequence (P25847 whole entry, chain 1 of 2): as the sequence (P25847 whole entry, chain 1 of 2) above
T1 sequence (Q03834 whole entry, chain 2 of 2): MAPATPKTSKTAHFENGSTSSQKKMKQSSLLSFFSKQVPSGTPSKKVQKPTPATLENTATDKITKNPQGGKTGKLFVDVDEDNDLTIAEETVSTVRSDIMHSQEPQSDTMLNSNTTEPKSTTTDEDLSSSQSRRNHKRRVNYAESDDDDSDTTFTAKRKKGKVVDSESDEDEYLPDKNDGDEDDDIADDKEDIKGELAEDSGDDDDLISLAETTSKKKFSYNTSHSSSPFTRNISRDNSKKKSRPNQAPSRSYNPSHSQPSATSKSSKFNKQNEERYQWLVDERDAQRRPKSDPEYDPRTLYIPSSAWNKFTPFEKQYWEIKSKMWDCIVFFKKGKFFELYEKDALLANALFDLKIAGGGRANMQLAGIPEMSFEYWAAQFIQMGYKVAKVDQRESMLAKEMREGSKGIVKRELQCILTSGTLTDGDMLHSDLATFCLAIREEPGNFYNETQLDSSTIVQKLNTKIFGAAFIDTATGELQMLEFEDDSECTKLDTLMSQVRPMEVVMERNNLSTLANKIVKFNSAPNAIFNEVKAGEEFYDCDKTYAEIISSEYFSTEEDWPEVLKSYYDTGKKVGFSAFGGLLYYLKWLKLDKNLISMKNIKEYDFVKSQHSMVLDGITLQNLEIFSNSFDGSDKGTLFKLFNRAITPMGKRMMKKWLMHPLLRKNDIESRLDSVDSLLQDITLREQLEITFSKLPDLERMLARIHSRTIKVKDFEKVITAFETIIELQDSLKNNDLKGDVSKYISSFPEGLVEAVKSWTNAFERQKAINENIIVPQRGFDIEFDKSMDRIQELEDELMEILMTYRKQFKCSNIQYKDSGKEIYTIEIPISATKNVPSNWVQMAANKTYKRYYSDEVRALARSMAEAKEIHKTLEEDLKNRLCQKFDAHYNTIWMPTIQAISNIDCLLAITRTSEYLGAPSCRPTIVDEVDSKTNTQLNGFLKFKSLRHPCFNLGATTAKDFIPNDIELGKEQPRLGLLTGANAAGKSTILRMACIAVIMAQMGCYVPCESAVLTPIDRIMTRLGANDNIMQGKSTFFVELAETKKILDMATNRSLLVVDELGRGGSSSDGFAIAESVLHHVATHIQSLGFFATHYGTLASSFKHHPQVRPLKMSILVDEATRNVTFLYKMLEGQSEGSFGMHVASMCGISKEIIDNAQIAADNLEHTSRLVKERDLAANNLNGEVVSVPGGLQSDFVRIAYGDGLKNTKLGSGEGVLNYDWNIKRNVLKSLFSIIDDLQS

B1: S. cerevisiae Mlh1-Pms1 complex (complex)
chain 1: MSLRIKALDASVVNKIAAGEIIISPVNALKEMMENSIDANATMIDILVKEGGIKVLQITDNGSGINKADLPILCERFTTSKLQKFEDLSQIQTYGFRGEALASISHVARVTVTTKVKEDRCAWRVSYAEGKMLESPKPVAGKDGTTILVEDLFFNIPSRLRALRSHNDEYSKILDVVGRYAIHSKDIGFSCKKFGDSNYSLSVKPSYTVQDRIRTVFNKSVASNLITFHISKVEDLNLESVDGKVCNLNFISKKSISPIFFINNRLVTCDLLRRALNSVYSNYLPKGNRPFIYLGIVIDPAAVDVNVHPTKREVRFLSQDEIIEKIANQLHAELSAIDTSRTFKASSISTNKPESLIPFNDTIESDRNRKSLRQAQVVENSYTTANSQLRKAKRQENKLVRIDASQAKITSFLSSSQQFNFEGSSTKRQLSEPKVTNVSHSQEAEKLTLNESEQPRDANTINDNDLKDQPKKKQKLGDYKVPSIADDEKNALPISKDGYIRVPKERVNVNLTSIKKLREKVDDSIHRELTDIFANLNYVGVVDEERRLAAIQHDLKLFLIDYGSVCYELFYQIGLTDFANFGKINLQSTNVSDDIVLYNLLSEFDELNDDASKEKIISKIWDMSSMLNEYYSIELVNDGLDNDLKSVKLKSLPLLLKGYIPSLVKLPFFIYRLGKEVDWEDEQECLDGILREIALLYIPDMVPKVDTSDASLSEDEKAQFINRKEHISSLLEHVLFPCIKRRFLAPRHILKDVVEIANLPDLYKVFERC
chain 2: MTQIHQINDIDVHRITSGQVITDLTTAVKELVDNSIDANANQIEIIFKDYGLESIECSDNGDGIDPSNYEFLALKHYTSKIAKFQDVAKVQTLGFRGEALSSLCGIAKLSVITTTSPPKADKLEYDMVGHITSKTTTSRNKGTTVLVSQLFHNLPVRQKEFSKTFKRQFTKCLTVIQGYAIINAAIKFSVWNITPKGKKNLILSTMRNSSMRKNISSVFGAGGMRGLEEVDLVLDLNPFKNRMLGKYTDDPDFLDLDYKIRVKGYISQNSFGCGRNSKDRQFIYVNKRPVEYSTLLKCCNEVYKTFNNVQFPAVFLNLELPMSLIDVNVTPDKRVILLHNERAVIDIFKTTLSDYYNRQELALPKRMCSQSEQQAQKRLKTEVFDDRSTTHESDNENYHTARSESNQSNHAHFNSTTGVIDKSNGTELTSVMDGNYTNVTDVIGSECEVSVDSSVVLDEGNSSTPTKKLPSIKTDSQNLSDLNLNNFSNPEFQNITSPDKARSLEKVVEEPVYFDIDGEKFQEKAVLSQADGLVFVDNECHEHTNDCCHQERRGSTDTEQDDEADSIYAEIEPVEINVRTPLKNSRKSISKDNYRSLSDGLTHRKFEDEILEYNLSTKNFKEISKNGKQMSSIISKRKSEAQENIIKNKDELEDFEQGEKYLTLTVSKNDFKKMEVVGQFNLGFIIVTRKVDNKYDLFIVDQHASDEKYNFETLQAVTVFKSQKLIIPQPVELSVIDELVVLDNLPVFEKNGFKLKIDEEEEFGSRVKLLSLPTSKQTLFDLGDFNELIHLIKEDGGLRRDNIRCSKIRSMFAMRACRSSIMIGKPLNKKTMTRVVHNLSELDKPWNCPHGRPTMRHLMELRDWSSFSKDYEI
notes: Mlh1, S. cerevisiae, expressed from pRDK573 (pGAL1-10-MLH1 TRP1); Pms1, S. cerevisiae, expressed from pRDK1099 (pGAL1-10-PMS1-FLAG LEU2); also called Mlh1-Pms1 heterodimer
For the molecule B1, the binding result (in test [1]; in the test with S. cerevisiae Msh2-Msh3) was “binds” throughout.

B2: S. cerevisiae Mlh1-Mlh2 complex (complex)
chain 1: B1 chain 1
chain 2: MTIHQLSPESQWKIVSSSFIYGPVAAVRELLDNSIDSGAKKVFIDVDSTTGGCEYISVKDDGSGVDIIDRPSMCLEYTTSKMSSLGDISILTTLGFRGEALFLLSNLCNQKGSMQVETKTADDVIGEKWLVDSKGGITNGKRYKVSCPVGTTVILRKLLGGLRARYLEISSRPRKTFDELIYLINHYSLIHRNIRFYFSLVSLQKNGAIERKQMQETLDPKISRARSLSLLARLKKPVPLNFIVEENFVIDEKINLDLILPRMVPESDVINIKRRFKFLSVNERALSLNLETGKTISKLLSSIYRDFSLLDPMVWFINLNCDTKLLDVNIEPEKNDVMIKSFEVIFKKIENKLKLLLEERIGIETNMLGDKHVQPSINEKTSPALVIPTPDAENEISKGCGAVSGKDKTDIPQKNSDLIVPTFYDEANLENTTIVAATPSPTKFSEDKALDEQTQLTISSYRSSSSGSMASEDSTNWRHNFQQELSENSEVAGAGSSTLPSSLTYNYIETIPENEDLELSKDASISNPFMITKIRNVNKKLSENLLEAKRTSCGDANKRGMPNERQLSNTEKKELIKLQQTYGKRNNTVDMTIPRNSKKKVTDNYIKKASCMHKTRPKLMHFSEYTNNYVYTLKNEKIVKHDSDNFAKETLWLRSRDDATSPSSSLLQALRAHVKKPGHIEATTNEWCLFTPDSP
notes: Mlh1, S. cerevisiae, expressed from pRDK573 (pGAL1-10-MLH1 TRP1); Mlh2, S. cerevisiae, MLH2 ORF put in place of the PMS1 ORF of pRDK1099, giving pRDK1664 (pGAL1-10-Mlh2-FLAG LEU2); Purified as a preformed complex through the FLAG tag on Mlh2; used at 40 nM in the SPR assay; also called Mlh1-Mlh2 heterodimer
Regarding B2, the binding result (in test [1]; with S. cerevisiae Msh2-Msh3) was “binds” throughout.
